Measured values from patent publication US20170119877A1.

Molecular target: murine VISTA (V-domain Ig suppressor of T cell activation) on spleen cells / Ly6C+CD11b+ MDSCs of B6 mice (mouse) (UniProt Q9D659)
Assay: cell-based or functional assay

UniProt Q9D659, sequence (Q9D659 33-308): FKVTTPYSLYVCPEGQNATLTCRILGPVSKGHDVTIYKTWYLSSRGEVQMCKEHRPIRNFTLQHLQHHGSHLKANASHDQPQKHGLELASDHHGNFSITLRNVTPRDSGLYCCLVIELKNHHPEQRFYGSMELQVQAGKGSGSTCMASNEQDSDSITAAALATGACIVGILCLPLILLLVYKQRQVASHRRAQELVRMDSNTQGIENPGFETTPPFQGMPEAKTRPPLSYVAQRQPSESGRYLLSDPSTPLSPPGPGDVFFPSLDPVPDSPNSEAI

- blocking of MDSC suppression of B-cell responsiveness (3H-thymidine incorporation, α-CD40 + IL-4 stimulation): 50%
- blocking of MDSC suppression of B-cell responsiveness, corrected for control HIg: 55%
- blocking of MDSC suppression of B-cell responsiveness, over several independent experiments: 65%
Substance: anti-VISTA mAb (13F3) (antibody)
